Results reported in patent EP4257134A2 (Immunomedics, Inc., dated 2023).
One block for each molecule: values may come before it.

How the values were obtained:
CD20 (human) [1] = target: CD20 (human) (UniProt P11836); experiment: flow cytometry with the unconjugated specific antibody, FITC goat anti-human IgG; WSU-FSCCL cells (background 4.9)
CD20 (human) [2] = target: CD20 (human) (UniProt P11836); experiment: flow cytometry with the unconjugated specific antibody, FITC goat anti-human IgG; Daudi cells (background 5.9)
CD20 (human) [3] = target: CD20 (human) (UniProt P11836); experiment: flow cytometry with the unconjugated specific antibody, FITC goat anti-human IgG; Ramos cells (background 4.1)
CD20 (human) [4] = target: CD20 (human) (UniProt P11836); experiment: flow cytometry with the unconjugated specific antibody, FITC goat anti-human IgG; REH cells (background 4.1)
CD20 (human) [5] = target: CD20 (human) (UniProt P11836); experiment: flow cytometry with the unconjugated specific antibody, FITC goat anti-human IgG; 697 cells (background 4.2)
CD20 (human) [6] = target: CD20 (human) (UniProt P11836); experiment: flow cytometry with the unconjugated specific antibody, FITC goat anti-human IgG; Jeko-1 cells (background 6.5)
CD20 (human) [7] = target: CD20 (human) (UniProt P11836); experiment: flow cytometry with the unconjugated specific antibody, FITC goat anti-human IgG; MN-60 cells (background 5.8)
CD20 (human) [8] = target: CD20 (human) (UniProt P11836); experiment: flow cytometry with the unconjugated specific antibody, FITC goat anti-human IgG; Raji cells (background 6.8)
CD20 (human) [9] = target: CD20 (human) (UniProt P11836); experiment: flow cytometry with the unconjugated specific antibody, FITC goat anti-human IgG; RS4;11 cells (background 4.1)
[10] = target: CD74 (invariant chain, Ii) (human) (UniProt P04233); experiment: flow cytometry, surface only; Capan-1 cells
[11] = target: CD74 (invariant chain, Ii) (human) (UniProt P04233); experiment: flow cytometry, surface only; NCI-N87 cells (background 4, GAH-FITC only)
[12] = target: CD74 (invariant chain, Ii) (human) (UniProt P04233); experiment: flow cytometry, surface and cytoplasmic (permeabilized cells); HuH-7
[13] = target: CD74 (invariant chain, Ii) (human) (UniProt P04233); experiment: flow cytometry, surface only; Capan-1 cells (background 12, GAH-FITC only)
[14] = target: CD74 (invariant chain, Ii) (human) (UniProt P04233); experiment: flow cytometry, surface and cytoplasmic (permeabilized cells); HuH-7 (background 4)
[15] = target: CD74 (invariant chain, Ii) (human) (UniProt P04233); experiment: flow cytometry, surface and cytoplasmic (permeabilized cells); Raji
[16] = target: CD74 (invariant chain, Ii) (human) (UniProt P04233); experiment: flow cytometry, surface and cytoplasmic (permeabilized cells); Hep-G2 (background 5)
[17] = target: CD74 (invariant chain, Ii) (human) (UniProt P04233); experiment: flow cytometry, surface only; NCI-N87 cells
[18] = target: CD74 (invariant chain, Ii) (human) (UniProt P04233); experiment: flow cytometry, surface and cytoplasmic (permeabilized cells); NCI-N87
[19] = target: CD74 (invariant chain, Ii) (human) (UniProt P04233); experiment: flow cytometry, surface and cytoplasmic (permeabilized cells); Hep-G2
[20] = target: CD74 (invariant chain, Ii) (human) (UniProt P04233); experiment: flow cytometry, surface and cytoplasmic (permeabilized cells); Capan-1
[21] = target: CD74 (invariant chain, Ii) (human) (UniProt P04233); experiment: flow cytometry, surface only; A-375 cells (background 3, GAH-FITC only)
[22] = target: CD74 (invariant chain, Ii) (human) (UniProt P04233); experiment: flow cytometry, surface only; Hs746T cells
[23] = target: CD74 (invariant chain, Ii) (human) (UniProt P04233); experiment: flow cytometry, surface and cytoplasmic (permeabilized cells); A-375 (background 6)
[24] = target: CD74 (invariant chain, Ii) (human) (UniProt P04233); experiment: flow cytometry, surface and cytoplasmic (permeabilized cells); Raji (background 5)
[25] = target: CD74 (invariant chain, Ii) (human) (UniProt P04233); experiment: flow cytometry, surface only; A-375 cells
[26] = target: CD74 (invariant chain, Ii) (human) (UniProt P04233); experiment: flow cytometry, surface only; HuH-7 cells
[27] = target: CD74 (invariant chain, Ii) (human) (UniProt P04233); experiment: flow cytometry, surface only; Raji cells (background 3, GAH-FITC only)
[28] = target: CD74 (invariant chain, Ii) (human) (UniProt P04233); experiment: flow cytometry, surface only; Hep-G2 cells (background 6, GAH-FITC only)
[29] = target: CD74 (invariant chain, Ii) (human) (UniProt P04233); experiment: flow cytometry, surface only; Raji cells
[30] = target: CD74 (invariant chain, Ii) (human) (UniProt P04233); experiment: flow cytometry, surface and cytoplasmic (permeabilized cells); Hs746T
[31] = target: CD74 (invariant chain, Ii) (human) (UniProt P04233); experiment: flow cytometry, surface and cytoplasmic (permeabilized cells); Capan-1 (background 5)
[32] = target: CD74 (invariant chain, Ii) (human) (UniProt P04233); experiment: flow cytometry, surface only; Hs746T cells (background 8, GAH-FITC only)
[33] = target: CD74 (invariant chain, Ii) (human) (UniProt P04233); experiment: cell binding to antigen-positive cells (cell line not given)
[34] = target: CD74 (invariant chain, Ii) (human) (UniProt P04233); experiment: flow cytometry, surface and cytoplasmic (permeabilized cells); Hs746T (background 5)
[35] = target: CD74 (invariant chain, Ii) (human) (UniProt P04233); experiment: flow cytometry, surface only; HuH-7 cells (background 5, GAH-FITC only)
[36] = target: CD74 (invariant chain, Ii) (human) (UniProt P04233); experiment: flow cytometry, surface and cytoplasmic (permeabilized cells); NCI-N87 (background 6)
[37] = target: CD74 (invariant chain, Ii) (human) (UniProt P04233); experiment: flow cytometry, surface and cytoplasmic (permeabilized cells); A-375
[38] = target: CD74 (invariant chain, Ii) (human) (UniProt P04233); experiment: flow cytometry, surface only; Hep-G2 cells
CEACAM6 (human) [39] = target: CEACAM6 (human) (UniProt P40199); experiment: flow cytometry; Hep-G2 cells
CEACAM6 (human) [40] = target: CEACAM6 (human) (UniProt P40199); experiment: flow cytometry, surface; NCI-N87 cells (staining antibody not given)
CEACAM6 (human) [41] = target: CEACAM6 (human) (UniProt P40199); experiment: flow cytometry, surface; HuH-7 cells (staining antibody not given)
CD22 (human) [42] = target: CD22 (human) (UniProt P20273); experiment: flow cytometry with the unconjugated specific antibody, FITC goat anti-human IgG; WSU-FSCCL cells (background 4.9)
CD22 (human) [43] = target: CD22 (human) (UniProt P20273); experiment: flow cytometry with the unconjugated specific antibody, FITC goat anti-human IgG; Daudi cells (background 5.9)
CD22 (human) [44] = target: CD22 (human) (UniProt P20273); experiment: flow cytometry with the unconjugated specific antibody, FITC goat anti-human IgG; Ramos cells (background 4.1)
CD22 (human) [45] = target: CD22 (human) (UniProt P20273); experiment: flow cytometry with the unconjugated specific antibody, FITC goat anti-human IgG; REH cells (background 4.1)
CD22 (human) [46] = target: CD22 (human) (UniProt P20273); experiment: flow cytometry with the unconjugated specific antibody, FITC goat anti-human IgG; 697 cells (background 4.2)
CD22 (human) [47] = target: CD22 (human) (UniProt P20273); experiment: flow cytometry with the unconjugated specific antibody, FITC goat anti-human IgG; Jeko-1 cells (background 6.5)
CD22 (human) [48] = target: CD22 (human) (UniProt P20273); experiment: flow cytometry with the unconjugated specific antibody, FITC goat anti-human IgG; MN-60 cells (background 5.8)
CD22 (human) [49] = target: CD22 (human) (UniProt P20273); experiment: flow cytometry with the unconjugated specific antibody, FITC goat anti-human IgG; Raji cells (background 6.8)
CD22 (human) [50] = target: CD22 (human) (UniProt P20273); experiment: flow cytometry with the unconjugated specific antibody, FITC goat anti-human IgG; RS4;11 cells (background 4.1)
[51] = target: Human trophoblast cell-surface antigen (Trop-2) (human) (UniProt P09758); experiment: cell binding assay on Trop-2-expressing cells
[52] = target: T1, Human trophoblast cell-surface antigen (Trop-2) (human, UniProt P09758 27-323); experiment: cell-based or functional assay
T1 sequence (looked up): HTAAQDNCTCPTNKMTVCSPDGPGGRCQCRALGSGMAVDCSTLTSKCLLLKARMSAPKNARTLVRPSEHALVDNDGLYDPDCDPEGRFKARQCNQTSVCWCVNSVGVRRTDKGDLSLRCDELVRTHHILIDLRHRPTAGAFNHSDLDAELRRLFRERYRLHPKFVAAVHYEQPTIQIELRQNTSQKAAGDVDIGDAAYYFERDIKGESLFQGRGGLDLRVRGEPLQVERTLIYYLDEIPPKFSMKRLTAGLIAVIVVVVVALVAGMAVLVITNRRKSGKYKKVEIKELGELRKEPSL

CD74 (invariant chain, Ii) (human), sequence (P04233 whole entry, change not shown): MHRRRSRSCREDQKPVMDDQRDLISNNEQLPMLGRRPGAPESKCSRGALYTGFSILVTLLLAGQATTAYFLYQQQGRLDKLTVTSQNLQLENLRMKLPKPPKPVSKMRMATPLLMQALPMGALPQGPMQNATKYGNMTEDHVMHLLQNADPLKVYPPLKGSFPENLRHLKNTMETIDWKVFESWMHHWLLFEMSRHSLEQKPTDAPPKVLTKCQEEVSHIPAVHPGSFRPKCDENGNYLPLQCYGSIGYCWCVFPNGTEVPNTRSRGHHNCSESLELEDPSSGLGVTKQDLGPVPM
CEACAM6 (human), sequence (P40199 35-320): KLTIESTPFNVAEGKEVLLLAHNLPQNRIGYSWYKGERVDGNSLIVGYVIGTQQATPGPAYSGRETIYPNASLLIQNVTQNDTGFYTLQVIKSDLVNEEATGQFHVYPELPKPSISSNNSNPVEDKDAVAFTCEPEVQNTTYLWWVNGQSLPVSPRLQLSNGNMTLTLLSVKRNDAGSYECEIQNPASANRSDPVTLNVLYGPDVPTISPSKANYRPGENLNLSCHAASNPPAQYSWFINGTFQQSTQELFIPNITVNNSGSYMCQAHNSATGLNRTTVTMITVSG
CD20 (human), sequence (P11836 whole entry): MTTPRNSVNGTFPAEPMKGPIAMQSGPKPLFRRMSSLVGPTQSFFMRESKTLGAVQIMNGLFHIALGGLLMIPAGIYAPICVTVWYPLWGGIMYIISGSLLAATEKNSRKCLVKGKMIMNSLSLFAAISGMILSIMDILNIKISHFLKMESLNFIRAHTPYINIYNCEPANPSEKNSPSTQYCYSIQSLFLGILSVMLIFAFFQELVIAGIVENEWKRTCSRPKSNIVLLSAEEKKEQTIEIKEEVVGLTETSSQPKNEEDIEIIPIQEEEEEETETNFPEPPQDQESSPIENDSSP

MFI (CEACAM6 (human) [39]): 175
MFI (CEACAM6 (human) [40]): 1120
MFI (CEACAM6 (human) [41]): 81
Molecule: hMN-15 (humanized anti-CEACAM6 IgG1, unconjugated) (antibody)

Kd [51]: 1.2 nM
Molecule: hRS7-CL2A-SN-38 (antibody)

Kd [33]: 0.59 nM
Molecule: Milatuzumab-CL2A-SN-38 (antibody)

ADCC, specific lysis of BxPC-3 target cells by PBMCs (effector to target ratio 100:1; antibody at 33.3 nM) [52]: 8.5%
B2: hRS7 IgG (humanized RS7 anti-Trop-2 antibody, unconjugated) (antibody, V domains shown)
VH: QVQLQQSGSELKKPGASVKVSCKASGYTFTNYGMNWVKQAPGQGLKWMGWINTYTGEPTYTDDFKGRFAFSLDTSVSTAYLQISSLKADDTAVYFCARGGFGSSYWYFDVWGQGSLVTVSS
VL: DIQLTQSPSSLSASVGDRVSITCKASQDVSIAVAWYQQKPGKAPKLLIYSASYRYTGVPDRFSGSGSGTDFTLTISSLQPEDFAVYYCQQHYITPLTFGAGTKVEIKR

The remaining lines, values behind:

Molecule: Veltuzumab (hA20, humanized anti-CD20 IgG1, unconjugated) (antibody)
Median fluorescence (CD20 (human) [1]): 97.4
Median fluorescence (CD20 (human) [2]): 815
Median fluorescence (CD20 (human) [3]): 620
Median fluorescence (CD20 (human) [4]): 12.3
Median fluorescence (CD20 (human) [5]): 6.9
Median fluorescence (CD20 (human) [6]): 605
Median fluorescence (CD20 (human) [7]): 21.5
Median fluorescence (CD20 (human) [8]): 422
Median fluorescence (CD20 (human) [9]): 3.7

Molecule: Milatuzumab (hLL1, humanized anti-CD74 IgG1, unconjugated) (antibody)
MFI Ratio hLL1:bkgd [10]: 1.8
MFI [11]: 5
MFI Ratio hLL1:bkgd [12]: 28.5
MFI [13]: 22
MFI [14]: 114
MFI Ratio hLL1:bkgd [15]: 28.6
MFI [16]: 156
MFI Ratio hLL1:bkgd [17]: 1.3
MFI Ratio hLL1:bkgd [18]: 36.7
MFI Ratio hLL1:bkgd [19]: 31.2
MFI Ratio hLL1:bkgd [20]: 49.6
MFI [21]: 16
MFI Ratio hLL1:bkgd [22]: 2.1
MFI [23]: 185
MFI [24]: 143
MFI Ratio hLL1:bkgd [25]: 5.3
MFI Ratio hLL1:bkgd [26]: 1.6
MFI [27]: 59
MFI [28]: 9
MFI Ratio hLL1:bkgd [29]: 19.6
MFI Ratio hLL1:bkgd [30]: 28.8
MFI [31]: 248
MFI [32]: 17
Kd [33]: 0.77 nM
MFI [34]: 144
MFI [35]: 8
MFI [36]: 220
MFI Ratio hLL1:bkgd [37]: 30.8
MFI Ratio hLL1:bkgd [38]: 1.5

Molecule: Milatuzumab-CL2E-SN-38 (antibody)
Kd [33]: 0.8 nM

Molecule: Epratuzumab (hLL2, humanized anti-CD22 IgG1, unconjugated) (antibody)
Median fluorescence (CD22 (human) [42]): 7.7
Median fluorescence (CD22 (human) [43]): 145
Median fluorescence (CD22 (human) [44]): 40.8
Median fluorescence (CD22 (human) [45]): 22.9
Median fluorescence (CD22 (human) [46]): 16
Median fluorescence (CD22 (human) [47]): 11.2
Median fluorescence (CD22 (human) [48]): 10.3
Median fluorescence (CD22 (human) [49]): 45.9
Median fluorescence (CD22 (human) [50]): 23.3

B1: hRS7-CL2-SN-38 (antibody, INN chains, looked up, V domains shown, part only)
VH: B2 VH
VL: DIQLTQSPSSLSASVGDRVSITCKASQDVSIAVAWYQQKPGKAPKLLIYSASYRYTGVPDRFSGSGSGTDFTLTISSLQPEDFAVYYCQQHYITPLTFGAGTKVEIK
modifications: SN-38 via CL2 linker
Kd [51]: 1.2 nM
